Experimental data as given in article PMC10978839.

Experiments:
[1] = confocal colocalisation with calreticulin/GM130; membrane trafficking; details: glycan lost; control: SEMA7A-WT
[2] = immunofluorescence intensity, HN6 and HN30; details: glycan lost; control: untreated and O-Glycosidase-treated cells
[3] = CHX chase immunoblot, turnover rate; details: glycan lost; control: untreated (endogenous SEMA7A)
[4] = non-reducing vs reducing western blot; details: glycan lost; control: SEMA7A-WT

Row | Protein | localisation_or_trafficking [1] | also measured
1 | SEMA7A: N258Q (protein) parent chain: MTPPPPGRAAPSAPRARVPGPPARLGLPLRLRLLLLLWAAAASAQGHLRSGPRIFAVWKGHVGQDRVDFGQTEPHTVLFHEPGSSSVWVGGRGKVYLFDFPEGKNASVRTVNIGSTKGSCLDKRDCENYITLLERRSEGLLACGTNARHPSCWNLVNGTVVPLGEMRGYAPFSPDENSLVLFEGDEVYSTIRKQEYNGKIPRFRRIRGESELYTSDTVMQNPQFIKATIVHQDQAYDDKIYYFFREDNPDKNPEAPLNVSRVAQLCRGDQGGESSLSVSKWNTFLKAMLVCSDAATNKNFNRLQDVFLLPDPSGQWRDTRVYGVFSNPWNYSAVCVYSLGDIDKVFRTSSLKGYHSSLPNPRPGKCLPDQQPIPTETFQVADRHPEVAQRVEPMGPLKTPLFHSKYHYQKVAVHRMQASHGETFHVLYLTTDRGTIHKVVEPGEQEHSFAFNIMEIQPFRRAAAIQTMSLDAERRKLYVSSQWEVSQVPLDLCEVYGGGCHGCLMSRDPYCGWDQGRCISIYSSERSVLQSINPAEPHKECPNPKPDKAPLQKVSLAPNSRYYLSCPMESRHATYSWRHKENVEQSCEPGHQSPNCILFIENLTAQQYGHYFCEAQEGSYFREAQHWQLLPEDGIMAEHLLGHACALAASLWLGVLPTLTLGLLVH | no change | 
2 | SEMA7A: N330Q (protein) parent chain: MTPPPPGRAAPSAPRARVPGPPARLGLPLRLRLLLLLWAAAASAQGHLRSGPRIFAVWKGHVGQDRVDFGQTEPHTVLFHEPGSSSVWVGGRGKVYLFDFPEGKNASVRTVNIGSTKGSCLDKRDCENYITLLERRSEGLLACGTNARHPSCWNLVNGTVVPLGEMRGYAPFSPDENSLVLFEGDEVYSTIRKQEYNGKIPRFRRIRGESELYTSDTVMQNPQFIKATIVHQDQAYDDKIYYFFREDNPDKNPEAPLNVSRVAQLCRGDQGGESSLSVSKWNTFLKAMLVCSDAATNKNFNRLQDVFLLPDPSGQWRDTRVYGVFSNPWNYSAVCVYSLGDIDKVFRTSSLKGYHSSLPNPRPGKCLPDQQPIPTETFQVADRHPEVAQRVEPMGPLKTPLFHSKYHYQKVAVHRMQASHGETFHVLYLTTDRGTIHKVVEPGEQEHSFAFNIMEIQPFRRAAAIQTMSLDAERRKLYVSSQWEVSQVPLDLCEVYGGGCHGCLMSRDPYCGWDQGRCISIYSSERSVLQSINPAEPHKECPNPKPDKAPLQKVSLAPNSRYYLSCPMESRHATYSWRHKENVEQSCEPGHQSPNCILFIENLTAQQYGHYFCEAQEGSYFREAQHWQLLPEDGIMAEHLLGHACALAASLWLGVLPTLTLGLLVH | no change | 
3 | SEMA7A: N602Q (protein) parent chain: MTPPPPGRAAPSAPRARVPGPPARLGLPLRLRLLLLLWAAAASAQGHLRSGPRIFAVWKGHVGQDRVDFGQTEPHTVLFHEPGSSSVWVGGRGKVYLFDFPEGKNASVRTVNIGSTKGSCLDKRDCENYITLLERRSEGLLACGTNARHPSCWNLVNGTVVPLGEMRGYAPFSPDENSLVLFEGDEVYSTIRKQEYNGKIPRFRRIRGESELYTSDTVMQNPQFIKATIVHQDQAYDDKIYYFFREDNPDKNPEAPLNVSRVAQLCRGDQGGESSLSVSKWNTFLKAMLVCSDAATNKNFNRLQDVFLLPDPSGQWRDTRVYGVFSNPWNYSAVCVYSLGDIDKVFRTSSLKGYHSSLPNPRPGKCLPDQQPIPTETFQVADRHPEVAQRVEPMGPLKTPLFHSKYHYQKVAVHRMQASHGETFHVLYLTTDRGTIHKVVEPGEQEHSFAFNIMEIQPFRRAAAIQTMSLDAERRKLYVSSQWEVSQVPLDLCEVYGGGCHGCLMSRDPYCGWDQGRCISIYSSERSVLQSINPAEPHKECPNPKPDKAPLQKVSLAPNSRYYLSCPMESRHATYSWRHKENVEQSCEPGHQSPNCILFIENLTAQQYGHYFCEAQEGSYFREAQHWQLLPEDGIMAEHLLGHACALAASLWLGVLPTLTLGLLVH | no change | 
4 | SEMA7A: PNGase F (protein) parent chain: MTPPPPGRAAPSAPRARVPGPPARLGLPLRLRLLLLLWAAAASAQGHLRSGPRIFAVWKGHVGQDRVDFGQTEPHTVLFHEPGSSSVWVGGRGKVYLFDFPEGKNASVRTVNIGSTKGSCLDKRDCENYITLLERRSEGLLACGTNARHPSCWNLVNGTVVPLGEMRGYAPFSPDENSLVLFEGDEVYSTIRKQEYNGKIPRFRRIRGESELYTSDTVMQNPQFIKATIVHQDQAYDDKIYYFFREDNPDKNPEAPLNVSRVAQLCRGDQGGESSLSVSKWNTFLKAMLVCSDAATNKNFNRLQDVFLLPDPSGQWRDTRVYGVFSNPWNYSAVCVYSLGDIDKVFRTSSLKGYHSSLPNPRPGKCLPDQQPIPTETFQVADRHPEVAQRVEPMGPLKTPLFHSKYHYQKVAVHRMQASHGETFHVLYLTTDRGTIHKVVEPGEQEHSFAFNIMEIQPFRRAAAIQTMSLDAERRKLYVSSQWEVSQVPLDLCEVYGGGCHGCLMSRDPYCGWDQGRCISIYSSERSVLQSINPAEPHKECPNPKPDKAPLQKVSLAPNSRYYLSCPMESRHATYSWRHKENVEQSCEPGHQSPNCILFIENLTAQQYGHYFCEAQEGSYFREAQHWQLLPEDGIMAEHLLGHACALAASLWLGVLPTLTLGLLVH |  | other: immunofluorescence detection by antibody [2]: increases
5 | SEMA7A: tunicamycin (protein) parent chain: MTPPPPGRAAPSAPRARVPGPPARLGLPLRLRLLLLLWAAAASAQGHLRSGPRIFAVWKGHVGQDRVDFGQTEPHTVLFHEPGSSSVWVGGRGKVYLFDFPEGKNASVRTVNIGSTKGSCLDKRDCENYITLLERRSEGLLACGTNARHPSCWNLVNGTVVPLGEMRGYAPFSPDENSLVLFEGDEVYSTIRKQEYNGKIPRFRRIRGESELYTSDTVMQNPQFIKATIVHQDQAYDDKIYYFFREDNPDKNPEAPLNVSRVAQLCRGDQGGESSLSVSKWNTFLKAMLVCSDAATNKNFNRLQDVFLLPDPSGQWRDTRVYGVFSNPWNYSAVCVYSLGDIDKVFRTSSLKGYHSSLPNPRPGKCLPDQQPIPTETFQVADRHPEVAQRVEPMGPLKTPLFHSKYHYQKVAVHRMQASHGETFHVLYLTTDRGTIHKVVEPGEQEHSFAFNIMEIQPFRRAAAIQTMSLDAERRKLYVSSQWEVSQVPLDLCEVYGGGCHGCLMSRDPYCGWDQGRCISIYSSERSVLQSINPAEPHKECPNPKPDKAPLQKVSLAPNSRYYLSCPMESRHATYSWRHKENVEQSCEPGHQSPNCILFIENLTAQQYGHYFCEAQEGSYFREAQHWQLLPEDGIMAEHLLGHACALAASLWLGVLPTLTLGLLVH |  | degradation_or_half_life [3]: increases
6 | SEMA7A: 3NQ (protein) parent chain: MTPPPPGRAAPSAPRARVPGPPARLGLPLRLRLLLLLWAAAASAQGHLRSGPRIFAVWKGHVGQDRVDFGQTEPHTVLFHEPGSSSVWVGGRGKVYLFDFPEGKNASVRTVNIGSTKGSCLDKRDCENYITLLERRSEGLLACGTNARHPSCWNLVNGTVVPLGEMRGYAPFSPDENSLVLFEGDEVYSTIRKQEYNGKIPRFRRIRGESELYTSDTVMQNPQFIKATIVHQDQAYDDKIYYFFREDNPDKNPEAPLNVSRVAQLCRGDQGGESSLSVSKWNTFLKAMLVCSDAATNKNFNRLQDVFLLPDPSGQWRDTRVYGVFSNPWNYSAVCVYSLGDIDKVFRTSSLKGYHSSLPNPRPGKCLPDQQPIPTETFQVADRHPEVAQRVEPMGPLKTPLFHSKYHYQKVAVHRMQASHGETFHVLYLTTDRGTIHKVVEPGEQEHSFAFNIMEIQPFRRAAAIQTMSLDAERRKLYVSSQWEVSQVPLDLCEVYGGGCHGCLMSRDPYCGWDQGRCISIYSSERSVLQSINPAEPHKECPNPKPDKAPLQKVSLAPNSRYYLSCPMESRHATYSWRHKENVEQSCEPGHQSPNCILFIENLTAQQYGHYFCEAQEGSYFREAQHWQLLPEDGIMAEHLLGHACALAASLWLGVLPTLTLGLLVH |  | oligomerisation [4]: no change
7 | SEMA7A: N105Q (protein) parent chain: MTPPPPGRAAPSAPRARVPGPPARLGLPLRLRLLLLLWAAAASAQGHLRSGPRIFAVWKGHVGQDRVDFGQTEPHTVLFHEPGSSSVWVGGRGKVYLFDFPEGKNASVRTVNIGSTKGSCLDKRDCENYITLLERRSEGLLACGTNARHPSCWNLVNGTVVPLGEMRGYAPFSPDENSLVLFEGDEVYSTIRKQEYNGKIPRFRRIRGESELYTSDTVMQNPQFIKATIVHQDQAYDDKIYYFFREDNPDKNPEAPLNVSRVAQLCRGDQGGESSLSVSKWNTFLKAMLVCSDAATNKNFNRLQDVFLLPDPSGQWRDTRVYGVFSNPWNYSAVCVYSLGDIDKVFRTSSLKGYHSSLPNPRPGKCLPDQQPIPTETFQVADRHPEVAQRVEPMGPLKTPLFHSKYHYQKVAVHRMQASHGETFHVLYLTTDRGTIHKVVEPGEQEHSFAFNIMEIQPFRRAAAIQTMSLDAERRKLYVSSQWEVSQVPLDLCEVYGGGCHGCLMSRDPYCGWDQGRCISIYSSERSVLQSINPAEPHKECPNPKPDKAPLQKVSLAPNSRYYLSCPMESRHATYSWRHKENVEQSCEPGHQSPNCILFIENLTAQQYGHYFCEAQEGSYFREAQHWQLLPEDGIMAEHLLGHACALAASLWLGVLPTLTLGLLVH | no change | 
8 | SEMA7A: N157Q (protein) parent chain: MTPPPPGRAAPSAPRARVPGPPARLGLPLRLRLLLLLWAAAASAQGHLRSGPRIFAVWKGHVGQDRVDFGQTEPHTVLFHEPGSSSVWVGGRGKVYLFDFPEGKNASVRTVNIGSTKGSCLDKRDCENYITLLERRSEGLLACGTNARHPSCWNLVNGTVVPLGEMRGYAPFSPDENSLVLFEGDEVYSTIRKQEYNGKIPRFRRIRGESELYTSDTVMQNPQFIKATIVHQDQAYDDKIYYFFREDNPDKNPEAPLNVSRVAQLCRGDQGGESSLSVSKWNTFLKAMLVCSDAATNKNFNRLQDVFLLPDPSGQWRDTRVYGVFSNPWNYSAVCVYSLGDIDKVFRTSSLKGYHSSLPNPRPGKCLPDQQPIPTETFQVADRHPEVAQRVEPMGPLKTPLFHSKYHYQKVAVHRMQASHGETFHVLYLTTDRGTIHKVVEPGEQEHSFAFNIMEIQPFRRAAAIQTMSLDAERRKLYVSSQWEVSQVPLDLCEVYGGGCHGCLMSRDPYCGWDQGRCISIYSSERSVLQSINPAEPHKECPNPKPDKAPLQKVSLAPNSRYYLSCPMESRHATYSWRHKENVEQSCEPGHQSPNCILFIENLTAQQYGHYFCEAQEGSYFREAQHWQLLPEDGIMAEHLLGHACALAASLWLGVLPTLTLGLLVH | no change | 
